The values below come from US20080267948A1, “Croos-B Structure Binding Compounds” (priority 2005, published 2008).

The target in series [1] is T1, glycated haemoglobin (Hb-AGE) (Homo sapiens, UniProt P68871+P69905).
T1 construct: purchased Sigma-Aldrich H7379
The experiment in a line: ELISA binding of recombinant human BiP to Hb-AGE, with or without tPA or K2P-tPA. The following applies: cell culture supernatant of HEK 293E cells. From the text:
Absorbance was read at 450 nm.
The threefold diluted cell supernatants were applied to the ELISA plate in duplicates and BiP binding was subsequently measured as described above. Coat efficiency was checked with specific anti-AGE antibody, anti-albumin antibody and anti-Hb antibody.
For orientation: An ELISA detects its analyte on a solid surface through an enzyme-linked reagent.

In series [2] the target is T2, glycated albumin (BSA-AGE) (Bos taurus, UniProt P02769).
T2 construct: purchased Sigma-Aldrich A-7906
T2 sequence (P02769 25-607): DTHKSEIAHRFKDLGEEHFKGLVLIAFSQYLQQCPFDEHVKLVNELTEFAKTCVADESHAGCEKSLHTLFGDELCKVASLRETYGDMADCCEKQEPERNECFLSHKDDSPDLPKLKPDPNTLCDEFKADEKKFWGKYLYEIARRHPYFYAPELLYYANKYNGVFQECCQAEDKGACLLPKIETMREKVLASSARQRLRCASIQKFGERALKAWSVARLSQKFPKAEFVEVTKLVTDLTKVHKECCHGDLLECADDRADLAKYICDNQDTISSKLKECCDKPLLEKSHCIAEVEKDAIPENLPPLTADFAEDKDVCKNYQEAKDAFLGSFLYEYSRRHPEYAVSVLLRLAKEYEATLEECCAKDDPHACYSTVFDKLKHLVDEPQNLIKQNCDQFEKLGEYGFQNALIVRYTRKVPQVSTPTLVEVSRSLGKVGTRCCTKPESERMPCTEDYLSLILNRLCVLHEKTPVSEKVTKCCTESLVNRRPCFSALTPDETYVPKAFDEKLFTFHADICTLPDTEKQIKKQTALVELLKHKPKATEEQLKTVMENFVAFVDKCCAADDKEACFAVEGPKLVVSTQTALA
Put plainly: ELISA binding of recombinant human BiP to BSA-AGE, with or without tPA or K2P-tPA. More on the design: species or system bovine. Particulars: cell culture supernatant of HEK 293E cells. Here is the method: Proteins at 5 μg/ml were coated for 1 h at room temperature with agitation, in Microlon high-binding ELISA plates (Greiner) in 50 mM NaHCO3 pH 9.6. Buffer was coated as negative control. A twofold dilutions series of cell culture supernatant of HEK 293E cells over-expressing BiP was also coated to the plate for anti-FLAG-tag antibody control purposes. Plates were washed and blocked with ½*Blocking reagent (Roche). Undiluted cell culture supernatant enriched with 0.1% Tween20 was added to the wells with immobilized protein ligands and incubated for 1 h at room temperature with agitation. Medium was discarded and the plate was washed with PBS with 0.1% v/v Tween20. Mouse monoclonal anti-FLAG-tag antibody (Sigma, A8592, anti-FLAG M2PO conjugate) was diluted 1000× in PBS/0.1% Tween20 and added to all wells, including those that are coated with cell culture supernatant. After a 1 h incubation at room temperature with agitation and after washing, wells were overlayed with 3000× diluted RAMPO (DAKOCytomation) in PBS/0.1% Tween20. […] Absorbance was read at 450 nm.
Hb-AGE, Hb, BSA-AGE, BSA and buffer were coated. The threefold diluted cell supernatants were applied to the ELISA plate in duplicates and BiP binding was subsequently measured as described above. […]

In series [3] the target is T3, tPA (Homo sapiens, UniProt P00750). The experiment in a line: ELISA binding of β2GPI to immobilized tPA. The following applies: tPA immobilized. Here is the method:
(§1) Binding of β2GPI was assessed with monoclonal antibody 2B2^17.

Series [4] relates to anti-β2GPI auto-antibodies from antiphospholipid syndrome patients. Put plainly: Interference with binding of anti-β2GPI autoantibodies to immobilized β2GPI. More on the design: species or system human. The following applies: concentration series of β2GPI in solution. Here is the method: β2GPI by recombinant β2GPI and not by plasma derived β2GPI When plasma derived β2GPI is coated onto hydrophilic ELISA plates, anti-β2GPI auto-antibodies isolated from plasma of antiphospholipid syndrome autoimmune patients can bind^18. To study the influence of coincubations of the coated β2GPI with the antibodies together with plasma β2GPI or recombinant β2GPI, concentration series of β2GPI were added to the patient antibodies. Subsequently, binding of the antibodies to coated β2GPI was determined.

In series [5] the target is T3, tPA. Put plainly: Plasminogen activation assay (tPA-mediated conversion of Plg to plasmin). The format is biochemical. The arrangement: purchased Boehringer-Ingelheim Actilyse. Particulars: 100 μg ml^−1 protein or peptide, 400 pM tPA, substrate S-2251. How it is done: Plasmin (Plm) activity was assayed as described^4. Peptides and proteins that were tested for their stimulatory ability were used at 100 μg ml^−1, unless stated otherwise. […] Chromogenic substrate S-2251 (Chromogenix, Instrumentation Laboratory SpA, Milano, Italy) was used to measure Pls activity.
Purification of β2-glycoprotein I (β2GPI) was performed according to established methods^15,16. Recombinant human β2GPI was made using insect cells and purified as described^15. Plasma derived β2GPI as used in a factor XII ELISA, the Plg-activation assay and in the anti-phospholipid syndrome antibody ELISA (see below), was purified from fresh human plasma as described^16. […]
Solutions of fibrin peptide FP6, NH2—IDIKIR-COOH (Peptide facility, Dutch Cancer Institute, Amsterdam, the Netherlands) were prepared in various ways. […] Separate samples were prepared similarly and analyzed by electron spray ionization mass spectrometry (ESI-MS) to obtain information on the distribution of the peptide over putatively present oligomers (Dr C. Versluis, Department of Biomolecular Mass Spectrometry, Bijvoet Center for Biomolecular Research, Utrecht University, Utrecht, The Netherlands). […] Micrographs were recorded at 80 kV, at suitable magnifications on a JEM-1200EX electron microscope (JEOL, Japan).

The next series has as its target T4, factor XII (Homo sapiens, UniProt P00748).
T4 sequence (P00748 20-615): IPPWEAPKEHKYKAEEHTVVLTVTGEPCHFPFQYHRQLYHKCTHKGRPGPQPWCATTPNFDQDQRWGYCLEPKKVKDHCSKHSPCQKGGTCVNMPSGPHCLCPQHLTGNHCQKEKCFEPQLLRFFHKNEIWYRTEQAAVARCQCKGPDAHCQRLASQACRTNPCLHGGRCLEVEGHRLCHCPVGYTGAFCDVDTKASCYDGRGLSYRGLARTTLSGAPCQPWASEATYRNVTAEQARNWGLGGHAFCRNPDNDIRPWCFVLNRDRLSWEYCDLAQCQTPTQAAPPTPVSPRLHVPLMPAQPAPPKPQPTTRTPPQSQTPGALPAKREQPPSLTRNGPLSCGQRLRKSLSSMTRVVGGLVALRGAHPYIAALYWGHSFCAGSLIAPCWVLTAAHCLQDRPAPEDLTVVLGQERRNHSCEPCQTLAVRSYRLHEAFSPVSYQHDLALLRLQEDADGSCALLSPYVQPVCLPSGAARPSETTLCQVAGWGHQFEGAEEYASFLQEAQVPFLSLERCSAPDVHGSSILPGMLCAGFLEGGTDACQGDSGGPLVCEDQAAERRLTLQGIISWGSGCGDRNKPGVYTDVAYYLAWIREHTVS
The experiment in a line: ELISA binding of β2GPI to immobilized factor XII. The arrangement: human factor XII from plasma (Calbiochem); purchased Calbiochem; host or cells: human plasma. The following applies: factor XII immobilized. How it is done:
as §1

T3 sequence (P00750 36-562): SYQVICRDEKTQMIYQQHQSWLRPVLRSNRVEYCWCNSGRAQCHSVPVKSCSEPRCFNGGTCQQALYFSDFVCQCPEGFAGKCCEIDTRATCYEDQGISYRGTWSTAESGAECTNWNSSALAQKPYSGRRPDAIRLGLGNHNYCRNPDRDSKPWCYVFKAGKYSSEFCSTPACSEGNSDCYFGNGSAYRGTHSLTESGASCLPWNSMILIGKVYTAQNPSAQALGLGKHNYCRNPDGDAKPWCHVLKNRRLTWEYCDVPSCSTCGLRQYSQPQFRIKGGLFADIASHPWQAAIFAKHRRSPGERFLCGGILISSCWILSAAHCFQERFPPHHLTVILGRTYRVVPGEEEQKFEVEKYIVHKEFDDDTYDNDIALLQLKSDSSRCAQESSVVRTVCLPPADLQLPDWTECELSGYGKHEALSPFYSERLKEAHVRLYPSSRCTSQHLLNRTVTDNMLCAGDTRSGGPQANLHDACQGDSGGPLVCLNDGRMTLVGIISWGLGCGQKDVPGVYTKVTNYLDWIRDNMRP
T1 sequence (P69905 2-142 limits assumed): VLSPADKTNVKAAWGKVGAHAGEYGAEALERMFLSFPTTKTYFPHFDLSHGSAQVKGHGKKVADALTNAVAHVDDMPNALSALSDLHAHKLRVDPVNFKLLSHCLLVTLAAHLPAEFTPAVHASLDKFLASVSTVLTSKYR
T1 sequence (P68871 2-147 limits assumed): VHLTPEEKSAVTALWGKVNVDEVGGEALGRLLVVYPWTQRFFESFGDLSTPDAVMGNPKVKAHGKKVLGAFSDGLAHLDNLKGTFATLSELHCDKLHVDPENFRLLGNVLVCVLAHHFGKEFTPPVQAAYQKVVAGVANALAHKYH

Regarding “BiP: recombinant human BiP with carboxy-terminal linker, FLAG-tag and His-tag, expressed in HEK 293E cells”, the “BiP binding to Hb-AGE and native haemoglobin” value in series [1] was “binds to glycated haemoglobin (Hb-AGE) and to a lesser extent to coated native haemoglobin”. Further, in series [2], the “BiP binding to BSA-AGE and native BSA” value is “binds to glycated albumin (BSA-AGE) and not to native BSA”.

B1: Recombinant β2GPI: recombinant human β2-glycoprotein I made using insect cells (protein, UniProt P02749 20-345, looked up)
Beta-2-glycoprotein 1: GRTCPKPDDLPFSTVVPLKTFYEPGEEITYSCKPGYVSRGGMRKFICPLTGLWPINTLKCTPRVCPFAGILENGAVRYTTFEYPNTISFSCNTGFYLNGADSAKCTEEGKWSPELPVCAPIICPPPSIPTFATLRVYKPSAGNNSLYRDTAVFECLPQHAMFGNDTITCTTHGNWTKLPECREVKCPFPSRPDNGFVNYPAKPTLYYKDKATFGCHDGYSLDGPEEIECTKLGNWSAMPSCKASCKVPVKKATVVYQGERVKIQEKFKNGMLHGDKVSFFCKNKEKKCSYTEDAQCIDGTIEVPKCFKEHSSLAFWKTDASDVKPC
modifications: recombinant, insect cells
Take B1: in the series with tPA [3], the “kD of binding to tPA” value worked out at 2.3 µg/mL. In series [4], the “inhibition of binding of anti-β2GPI auto-antibodies to immobilized β2GPI” value is recorded as “efficiently inhibits binding of anti-β2GPI auto-antibodies to immobilized β2GPI”. The “stimulation of tPA-mediated conversion of Plg to plasmin” value with tPA [5] was “stimulate tPA-mediated conversion of Plg to plasmin”. The “kD of binding to factor XII” value with factor XII is 0.9 µg/mL.
